Article PMC7555870, “Isolation, Evaluation, and Identification of Angiotensin I-Converting Enzyme Inhibitory Peptides from Game Meat” (Foods, 2020)
Where two headings read alike, the source gives them in different places. Marks after values point to notes of the source that are not given here. Each block holds one molecule with its values, some of them ahead of it. Where no end group is shown, it is not given here. [ ]: non-standard residue; d: D form.

Key:
[1] = target: T1, ACE, a dipeptidyl carboxypeptidase (EC 3.4.15.1) extracted from rabbit lung (Oryctolagus cuniculus, UniProt P12822); assay: ACE inhibitory activity assay, modified Cheung method (96-well plate, HHL, OPA fluorescence); type: biochemical; conditions: synthesized peptides identified from digested venison; mean ± SD of three repeated experiments; ND = not detectable
T1 construct: extracted from rabbit lung; purchased Sigma Chemical Co. (St. Louis, MO, USA); host or cells: rabbit lung tissue
T1 sequence (P12822 34-1310): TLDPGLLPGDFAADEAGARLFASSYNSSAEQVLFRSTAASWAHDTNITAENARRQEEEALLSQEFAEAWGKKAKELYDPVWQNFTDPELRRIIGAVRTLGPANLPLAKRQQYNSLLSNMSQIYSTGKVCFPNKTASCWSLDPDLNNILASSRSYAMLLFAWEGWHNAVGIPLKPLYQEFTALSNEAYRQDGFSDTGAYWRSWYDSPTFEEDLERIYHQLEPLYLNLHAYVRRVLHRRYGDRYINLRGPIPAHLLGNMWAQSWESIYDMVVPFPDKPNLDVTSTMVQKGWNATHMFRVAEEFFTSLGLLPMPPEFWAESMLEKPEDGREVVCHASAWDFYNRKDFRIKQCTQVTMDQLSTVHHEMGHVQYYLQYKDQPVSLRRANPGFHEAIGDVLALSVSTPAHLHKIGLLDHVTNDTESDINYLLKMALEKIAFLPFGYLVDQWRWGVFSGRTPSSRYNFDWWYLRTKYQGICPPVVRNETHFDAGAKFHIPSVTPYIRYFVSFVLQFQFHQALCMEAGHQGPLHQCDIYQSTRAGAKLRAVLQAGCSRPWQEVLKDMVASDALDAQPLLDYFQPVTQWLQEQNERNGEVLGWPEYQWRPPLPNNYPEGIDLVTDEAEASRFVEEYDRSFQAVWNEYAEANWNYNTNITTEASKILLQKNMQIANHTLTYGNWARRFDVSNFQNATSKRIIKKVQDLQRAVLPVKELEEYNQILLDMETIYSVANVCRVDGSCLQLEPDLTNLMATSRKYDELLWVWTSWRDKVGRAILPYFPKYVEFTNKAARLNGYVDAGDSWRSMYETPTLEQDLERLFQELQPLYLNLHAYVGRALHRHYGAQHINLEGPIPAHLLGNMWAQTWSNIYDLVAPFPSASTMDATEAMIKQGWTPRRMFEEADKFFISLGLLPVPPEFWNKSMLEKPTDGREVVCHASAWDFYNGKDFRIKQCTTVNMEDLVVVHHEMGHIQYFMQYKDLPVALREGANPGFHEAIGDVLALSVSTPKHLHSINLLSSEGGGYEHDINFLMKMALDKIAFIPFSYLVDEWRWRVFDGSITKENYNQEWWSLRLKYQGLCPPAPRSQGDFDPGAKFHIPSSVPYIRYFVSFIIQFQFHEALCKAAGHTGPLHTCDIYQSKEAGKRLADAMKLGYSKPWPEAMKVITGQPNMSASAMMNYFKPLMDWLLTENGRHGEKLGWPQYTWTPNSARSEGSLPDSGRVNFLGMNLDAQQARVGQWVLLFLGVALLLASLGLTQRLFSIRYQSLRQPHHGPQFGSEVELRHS
Procedure: The digested samples were centrifuged at 10,000× g for 15 min, and the supernatants were subjected to an ACE inhibitory assay. ACE inhibitory activity was measured using a previously reported method. ACE, a dipeptidyl carboxypeptidase (EC 3.4.15.1) extracted from rabbit lung, was obtained from Sigma Chemical Co. (St. Louis, MO, USA). Hippuryl-L-histidyl-L-leucine (HHL) (Nacalai Tesque) was used as the synthetic substrate. A 40 µL aliquot of each sample solution was added to 100 µL of borate buffer (containing 0.3 M NaCl, 5 mM HHL, pH 8.3) and incubated at 37 °C for 3 min. Then, 20 µL ACE solution (0.1 U mL^−1) was added to each sample solution, and the reaction mixture was incubated at 37 °C for 30 min. After that, the reaction was terminated using 250 µL of 1 M HCl, and hippuric acid was extracted by adding 1.5 mL of ethyl acetate and shaking. Eventually, mixtures were centrifuged at 1750× g for 10 min, 1 mL of supernatant was transferred into a test tube, and ethyl acetate was eliminated by heat evaporation at 95 °C. The precipitate was re-dissolved in 2 mL of deionized water and measured spectrophotometrically at 228 nm, using a UV-1800 spectrophotometer (Shimadzu, Kyoto, Japan). For the analysis of samples fractionated by reversed-phase chromatography, the synthetic peptides were assayed using the modified method reported by Cheung, et al.. Briefly, 50 µL of sample solution, 100 µL of the ACE 0.01 U/mL, and 20 µL of 25 mM HHL were mixed in a 96-well plate and incubated at 37 °C for 40 min. Subsequently, 100 µL of 1 M NaOH, 10 µL 0.2% OPA, and 15 µL 3.6 M phosphoric acid were added, and the fluorescence of samples was measured using the plate-reader POWERSCAN MX (DS Pharma Biomedical Co., Ltd., Osaka, Japan) at an excitation wavelength of 360 nm and emission wavelength of 460 nm. The inhibitory activity (%) was calculated as follows: inhibitory activity (%) = ((Ac – As)/(Ac – Ab)) × 100. Ac is the intensity of the control, as is the intensity of the sample, and Ab is the intensity of the blank. Data are expressed as the 50% inhibitory concentration (IC50) for each sample.

[2] = tested on: ACE; conditions: previously reported peptides; cited from earlier work
Source text: The potent ACE inhibitory peptides are generally short chains of 3–6 amino acids, with a Ser, Leu, or Thr at the C-terminal, which plays an important role in this activity. The ACE inhibitory peptides identified in this study, except for IKEVTER, seem to be of a larger size than those of inhibitory peptides described in previous reports. ACE inhibitory peptides have been previously reported from meat and seafood vertebrate specimens, and their IC50 values have been reported.

[3] = target: T2, angiotensin I-converting enzyme (ACE), a dipeptidyl carboxypeptidase (EC 3.4.15.1) extracted from rabbit lung (rabbit) (UniProt P12822)
T2 sequence: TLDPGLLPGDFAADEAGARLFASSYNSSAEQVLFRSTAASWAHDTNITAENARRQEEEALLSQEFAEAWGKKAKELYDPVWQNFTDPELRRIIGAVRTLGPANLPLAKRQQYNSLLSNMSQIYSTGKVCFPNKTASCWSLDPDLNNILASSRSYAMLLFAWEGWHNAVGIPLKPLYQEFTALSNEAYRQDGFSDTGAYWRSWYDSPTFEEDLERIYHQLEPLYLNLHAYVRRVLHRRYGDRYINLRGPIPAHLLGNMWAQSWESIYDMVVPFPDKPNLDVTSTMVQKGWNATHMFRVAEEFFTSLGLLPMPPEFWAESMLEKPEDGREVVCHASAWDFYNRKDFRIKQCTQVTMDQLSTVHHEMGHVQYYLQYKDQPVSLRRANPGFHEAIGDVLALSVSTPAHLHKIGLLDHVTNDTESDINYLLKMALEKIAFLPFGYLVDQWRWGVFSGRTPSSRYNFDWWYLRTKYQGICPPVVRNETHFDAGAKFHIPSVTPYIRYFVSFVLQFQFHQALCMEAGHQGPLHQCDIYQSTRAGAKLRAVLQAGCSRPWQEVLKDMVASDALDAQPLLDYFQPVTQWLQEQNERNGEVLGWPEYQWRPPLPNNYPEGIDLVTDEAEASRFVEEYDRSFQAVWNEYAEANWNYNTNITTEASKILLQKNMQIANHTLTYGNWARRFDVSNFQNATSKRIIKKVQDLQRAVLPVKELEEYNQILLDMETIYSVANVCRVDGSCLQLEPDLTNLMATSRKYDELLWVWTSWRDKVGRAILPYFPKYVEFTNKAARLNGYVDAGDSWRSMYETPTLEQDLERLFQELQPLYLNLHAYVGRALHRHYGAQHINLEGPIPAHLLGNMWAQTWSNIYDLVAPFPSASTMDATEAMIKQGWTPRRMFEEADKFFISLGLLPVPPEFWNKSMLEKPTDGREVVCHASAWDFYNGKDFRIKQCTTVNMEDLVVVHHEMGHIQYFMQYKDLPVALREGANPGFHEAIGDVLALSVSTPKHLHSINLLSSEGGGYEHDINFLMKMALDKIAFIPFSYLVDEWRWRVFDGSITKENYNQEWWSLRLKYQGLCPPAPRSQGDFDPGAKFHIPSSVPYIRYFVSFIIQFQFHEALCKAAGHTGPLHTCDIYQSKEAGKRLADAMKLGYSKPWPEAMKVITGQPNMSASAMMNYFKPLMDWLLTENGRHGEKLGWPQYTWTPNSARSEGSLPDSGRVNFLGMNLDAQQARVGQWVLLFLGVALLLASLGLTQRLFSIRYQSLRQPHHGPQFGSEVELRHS

Molecule: TEAGATVTVK [TEAGATVTVK]
- IC50 [1]: 214 µM

Molecule: GFHI
- ACE inhibition IC50 values [2]: 117 µg/mL

Molecule: VcNYVNWIQQTIAAN (V[code c]NYVNWIQQTIAAN; not fully specified; printed as VcNYVNWIQQTIAAN) [synthesized peptide identified from digested venison; origin Tropomyosin alpha-3 chain]
- Ace Inhibitory Activity (IC50) [1]: 358.64 ± 64.71 ^a μg/mL

Molecule: mQGTLEDQIISANPLLEAFGNAK ([code m]QGTLEDQIISANPLLEAFGNAK; not fully specified; printed as mQGTLEDQIISANPLLEAFGNAK) [synthesized peptide identified from digested venison; origin Myosin-1]
- Ace Inhibitory Activity (IC50) [1]: 292.83 ± 38.27 ^a,b μg/mL

Molecule: IKEVTER [IKEVTER, Isoleucine-Lysine- Glutamic Acid-Valine-Threonine-Glutamic Acid-Arginine]
- IC50 [1]: 99 µM

Molecule: DFHING
- ACE inhibition IC50 values [2]: 64.3 µg/mL

Molecule: GLSDGEWQ
- ACE inhibition IC50 values [2]: 50.5 µg/mL

- ACE inhibitory activity (IC50; hydrolysis of hippuryl-L-histidyl-L-leucine by ACE, OPA fluorescence, 37 °C) [3]: 359 µg/mL
- ACE inhibitory activity (IC50; hydrolysis of hippuryl-L-histidyl-L-leucine by ACE, OPA fluorescence, 37 °C) ([3]; record 2): 293 µg/mL
- ACE inhibitory activity (IC50; hydrolysis of hippuryl-L-histidyl-L-leucine by ACE, OPA fluorescence, 37 °C) ([3]; record 3): 86.5 µg/mL
- ACE inhibitory activity (IC50; hydrolysis of hippuryl-L-histidyl-L-leucine by ACE, OPA fluorescence, 37 °C) ([3]; record 4): 209 µg/mL
Molecule: TEAGATVTVK […]
